Measured values: patent publication US20150246949A1, “Desmoglein 2 (DSG2) Binding Proteins and Uses Therefor” (UNIVERSITY OF WASHINGTON THROUGH ITS CENTER FOR …, priority 2012, published 2015)
Residue numbers refer to the chain shown, from its start. Numbers in names are those of the source.

Columns and labels:
[1] = molecular target: T1, human DSG2 on cells (HeLa cells; polarized T84 cells) (human, UniProt Q14126 50-1118); test: cell-based or functional assay
T1 sequence: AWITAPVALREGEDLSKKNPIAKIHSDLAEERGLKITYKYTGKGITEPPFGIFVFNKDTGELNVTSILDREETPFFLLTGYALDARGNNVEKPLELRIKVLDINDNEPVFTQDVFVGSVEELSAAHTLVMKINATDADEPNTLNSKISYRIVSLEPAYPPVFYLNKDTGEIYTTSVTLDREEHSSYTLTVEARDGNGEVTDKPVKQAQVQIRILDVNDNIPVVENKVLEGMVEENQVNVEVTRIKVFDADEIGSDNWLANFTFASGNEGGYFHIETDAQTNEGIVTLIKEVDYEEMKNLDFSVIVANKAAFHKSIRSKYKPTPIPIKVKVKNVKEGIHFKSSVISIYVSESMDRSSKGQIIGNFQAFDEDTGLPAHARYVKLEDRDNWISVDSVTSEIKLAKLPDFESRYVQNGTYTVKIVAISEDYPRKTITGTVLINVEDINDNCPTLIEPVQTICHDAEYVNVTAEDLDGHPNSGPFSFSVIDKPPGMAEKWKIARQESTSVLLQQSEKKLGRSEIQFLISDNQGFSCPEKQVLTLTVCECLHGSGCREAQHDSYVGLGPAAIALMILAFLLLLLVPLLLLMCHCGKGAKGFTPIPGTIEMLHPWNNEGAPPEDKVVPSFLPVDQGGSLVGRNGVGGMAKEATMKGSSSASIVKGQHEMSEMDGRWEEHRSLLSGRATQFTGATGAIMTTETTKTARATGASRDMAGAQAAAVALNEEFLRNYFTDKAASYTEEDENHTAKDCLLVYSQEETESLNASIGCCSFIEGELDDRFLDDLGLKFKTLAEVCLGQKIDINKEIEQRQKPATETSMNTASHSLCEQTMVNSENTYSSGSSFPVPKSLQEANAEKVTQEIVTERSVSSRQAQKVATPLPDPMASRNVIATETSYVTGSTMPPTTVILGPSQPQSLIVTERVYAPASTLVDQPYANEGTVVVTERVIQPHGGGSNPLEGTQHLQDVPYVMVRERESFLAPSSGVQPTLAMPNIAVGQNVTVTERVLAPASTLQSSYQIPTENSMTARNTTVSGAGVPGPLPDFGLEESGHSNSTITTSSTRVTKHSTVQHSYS

[2] = molecular target: T2, Recombinant human DSG2 protein (Leinco Technologies) (human, UniProt Q14126 50-609); test: Western blot of dimeric knob, soluble DSG2 as probe (Table 2: 0% residual binding)
T2 construct: also called soluble DSG2; soluble recombinant DSG2
T2 sequence: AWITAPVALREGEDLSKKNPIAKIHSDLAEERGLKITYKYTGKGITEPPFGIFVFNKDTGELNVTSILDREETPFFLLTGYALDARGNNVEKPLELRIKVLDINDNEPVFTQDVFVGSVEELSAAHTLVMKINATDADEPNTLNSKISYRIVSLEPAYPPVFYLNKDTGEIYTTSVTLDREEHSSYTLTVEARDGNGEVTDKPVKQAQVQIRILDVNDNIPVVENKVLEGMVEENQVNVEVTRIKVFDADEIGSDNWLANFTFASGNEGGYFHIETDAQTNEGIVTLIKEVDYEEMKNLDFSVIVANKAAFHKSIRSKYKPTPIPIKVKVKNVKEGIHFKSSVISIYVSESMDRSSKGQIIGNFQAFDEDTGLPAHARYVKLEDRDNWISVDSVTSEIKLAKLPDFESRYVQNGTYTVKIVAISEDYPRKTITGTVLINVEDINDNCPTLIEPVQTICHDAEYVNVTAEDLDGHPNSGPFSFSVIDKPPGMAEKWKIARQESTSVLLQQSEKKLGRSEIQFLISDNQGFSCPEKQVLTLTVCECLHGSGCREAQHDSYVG

[3] = molecular target: T1, human DSG2 on cells (HeLa cells; …); test: attachment of 3H-labelled Ad3 virus (competitor) to HeLa cells pre-incubated with the dimeric knob
[4] = molecular target: T2, Recombinant human DSG2 protein (Leinco …); test: Western blot of dimeric knob (trimer band), soluble recombinant DSG2 as probe, anti-DSG2 mAb
[5] = molecular target: T3, soluble recombinant DSG2 (Homo sapiens, UniProt Q14126); test: Western blot of dimeric Ad3 fiber knob mutants probed with soluble DSG2; type: binding; details: purified dimerized knob mutants
T3 construct: purchased Leinco Technologies, Inc. (St. Louis, Mo.)
T3 sequence (Q14126 50-609 limits assumed): T2 sequence
Description: FIG. 1. Residues found to be critically involved in binding to DSG2. A) Shown are the amino acid sequences of the Ad3 and Ad14p1 fiber knob. Beta sheets present in the Ad3 knob (PDB accession number 1H7Z_A) and Ad14 knob (PDB: 3F0Y_A) are indicated by lines. Black arrows indicate residues within the Ad3 fiber knob which, when mutated individually, ablate or reduce binding to DSG2. […] B) Schematic structure of dimeric Ad3 fiber knob mutants. The fiber knob domain and one shaft motif was fused through a flexible linker to a homodimerizing K-coil domain (41). The proteins are self-dimerizing and can be purified by His-Ni-NTA affinity chromatography. C-F) Analysis of binding of dimeric Ad3 fiber knob mutants to soluble DSG2. C and D) Coomassie staining. 10 μg of purified Ad3 fiber knob (unboiled) were loaded per lane. Trimeric forms of the fiber knobs are indicated by an arrow. The gel contained SDS and the loading buffer containing DTT, which caused the disassembly of dimers of trimeric fiber knobs as previously reported (41). E and F): Western blot using soluble recombinant DSG2 as a probe, followed by anti-DSG2-mAb and anti-mouse IgG-HRP. For comparison, JO-1 (0.5 μg/lane) is shown. The Western blots were scanned and signals were quantified.
Mini-PROTEAN precast gels (BIO-RAD, Hercules, Calif.) with 4-15% gradient polyacrylamide were used. A total of […] protein mixed with 2× loading buffer (10 mM Tris-HCl, pH6.8, 200 mM DTT, 4% SDS, 20% glycerol, 0.2% bromophenol blue) was loaded per lane. Samples were either boiled (B) for 5 min or loaded unboiled (UB). The following running buffer was used: 25 mM Tris, pH8.3, 0.192 M glycine, 0.1% SDS. After electrophoresis, proteins were transferred to nitrocellulose and incubated with recombinant human DSG2 protein and anti-DSG2 antibodies as described previously (42). The Western blots were scanned and quantified using the ImageJ 1.32 software (National Institutes of Health, Bethesda, Md.). JO-1 band intensity was set as 100%. […]

[6] = system: Ad3-GFP virus; test: Competition of Ad3-GFP virus infection on HeLa cells; type: cell-based, adenovirus serotype 3 (Ad3)
Experimental: (§1) FIG. 3. Competition of Ad3 virus by dimerized Ad3 knob mutants. A) Relative attachment of ^3H-labeled Ad3 virus in the presence of dimeric fiber knob mutants. 1.8×10^5 HeLa cells were incubated with Ad3 knob mutants at a concentration of 2.5 and 100 μg/ml on ice for 1 hour. Then 400 pfu/cell of ^3H-Ad3 virus was added on ice for another hour. Unbound virus particles were washed away. Attachment of virus particles incubated with PBS was taken as 100%. N=3. B) Competition of Ad3-GFP virus infection on HeLa cells. 1.5×10^5 HeLa cells were seeded into 24 well plates. Cells were incubated with the Ad3 knob mutants at increasing concentrations for one hour at room temperature. 100 pfu/cell of Ad3-GFP virus were then added and GFP expression was analyzed 18 hours later by flow cytometry. Left panel: percentage of GFP positive cells. Right panel: mean fluorescence intensity. N=3. The standard deviation was less than 10%. C) Relative attachment of ^3H-labeled Ad3 virus in the presence of dimeric fiber knob mutants with multiple mutations. The study was performed as described in B) The standard deviation was less than 10%. D) Competition of Ad3-GFP virus infection on HeLa cells. The study was performed as described in C) The standard deviation was less than 10%.
FIG. 9. Analysis of dimeric Ad3 fiber knob mutants with increased affinity to DSG2. A) Competition of Ad3-GFP virus infection on HeLa cells with dimeric affinity-enhanced mutant Y250F and JO-1 (dimeric wt Ad3 fiber knob). The experimental setting is as described for FIG. 3C. left panel: percentage of GFP positive cells. Right panel: mean fluorescence intensity. N=3. The standard deviation was less than 10%. […] 100 pfu/cell of Ad3GFP virus were then added and GFP expression was analyzed 18 hours later. […]
Competition studies were performed on HeLa cells, which express DSG2 (42). […] Transduction was measured based on GFP expression (FIG. 3B). […] Dimeric Ad3 knob mutants with combined mutations were also analyzed for their ability to compete with Ad3 virus for attachment (FIG. 3C) and infection (FIG. 3D).

[7] = system: 3H-labeled Ad3 virus; test: Competition of 3H-labeled Ad3 virus attachment to HeLa cells; type: cell-based, adenovirus serotype 3 (Ad3)
Experimental: as §1, with “The study was performed as described in B) The standard deviation was less than 10%. D) Competition of Ad3-GFP virus infection on HeLa cells. The study was performed as described in C) The standard deviation was less than 10%.” left out
HeLa cells were detached from culture dishes by incubation with Versene and washed with PBS. […] After the last wash, the supernatant was removed and the cell-associated radioactivity was determined by a scintillation counter. The number of VP bound per cell was calculated by using the virion specific radioactivity and the number of cells.

[8] = HeLa cells, concentrations up to 200 ug/ml

B1: dimeric Ad3 fiber knob mutant D261N (designed binder)
chain: MKVSALKEKVSALKEKVSALKEKVSALKEKVSALKEGSGGGSGGGSGGGSNSIALKNNTLWTGPKPEANCIIEYGKQNPDSKLTLILVKNGGIVNGYVTLMGASDYVNTLFKNKNVSINVELYFDATGHILPDSSSLKTDLELKYKQTADFSARGFMPSTTAYPFVLPNAGTHNENYIFGQCYYKASNGALFPLEVTVMLNKRLPDSRTSYVMTFLWSLNAGLAPETTQATLITSPFTFSYIREDD
Inhibition of infection in the presence of dimeric knob (JO-1 = 100%) [1]: 5.3%
binding result [2]: no binding
Inhibition of attachment in the presence of dimeric knob (JO-1 = 100%) [3]: 45%
Western blot residual DSG2 binding (wtAd3 knob = 100%) [4]: 0%

B2: dimeric Ad3 fiber knob mutant F265L (designed binder)
chain: B1 chain with N188D, F192L
Inhibition of infection in the presence of dimeric knob (JO-1 = 100%) [1]: 17.6%
binding result [2]: no binding
Inhibition of attachment in the presence of dimeric knob (JO-1 = 100%) [3]: 55.6%
Western blot residual DSG2 binding (wtAd3 knob = 100%) [4]: 0%

B3: F265L (protein)
chain: B1 chain with N188D, F192L
DSG2 binding in Western blot compared to JO-1 [5]: almost completely ablated for DSG2 binding
Competition of Ad3-GFP infection based on GFP expression ([6]; HeLa cells pre-incubated with knob, 100 pfu/cell Ad3-GFP, GFP at 18 hours): least reduced

B4: N186D, D261N, L296R: dimeric Ad3 fiber knob with combination of all three N186D, D261N, and L296R (protein)
chain: B1 chain with N113D, L223R
Inhibition of attachment in the presence of dimeric knob (JO-1 = 100%) ([7]; Ad3 virus attachment to HeLa cells, N = 3): 18.5%
Block of Ad3 binding [7, 8]: did not block
DSG2 binding in Western blot compared to JO-1 [5]: highest level of ablation
Block of Ad3 infection [6, 8]: did not block
